Data reported in publication PMC5481817, “Developing Targeted Hybrid Imaging Probes by Chelator Scaffolding” (Bioconjugate chemistry, 2017).
Read-outs that look alike come from different tables or passages of the source.

Columns and labels:
[1] = assay type: physicochemical; details: pH 7.4
Description: (§1) [^68Ga]Sulfo-Cy7-FSC-MG and [^68Ga]Sulfo-Cy7-FSC-RGD (6 MBq) were diluted with phosphate buffered saline to a concentration of 1 μM. Subsequently 50 μL of this solution was added to six Eppendorf tubes containing 450 μL PBS and 500 μL octanol. The mixture was vortexed (1400 rpm) at RT for 15 min using a MS 3 basic vortexer (IKA, Staufen, Germany) followed by centrifugation for 2 min at 4500 rpm. Aliquots of 100 μL of both phases were transferred to plastic vials, measured in the γ-counter and logD values were calculated. For stability testing, radiolabeled tracers were diluted with 450 μL fresh human serum and 450 μL PBS as control to a concentration of 2 μM followed by incubation at 37 °C. After 1, 2, and 4 h (n = 3) 50 μL aliquots were precipitated with acetonitrile (1:1) and centrifuged for 2 min at 14 × 10^3 rpm. The supernatant was analyzed by radio-RP-HPLC to evaluate for decomposition and corresponding chromatograms are shown in Supporting Information. For protein binding measurement aliquots were analyzed by size exclusion chromatography using MicroSpin G-50 Columns (Sephadex G-50, GE Healthcare, Vienna, Austria) in triplicates. […] Column and eluate were measured in the γ-counter and percentages of nonprotein bound radiolabeled peptide (column) and protein bound radiotracer (eluate) were calculated.

in vitro = in vitro ADME, human
Description: as §1

physchem = assay type: physicochemical; details: buffer or solvent
Description: [^68Ga]Sulfo-Cy7-FSC-MG and [^68Ga]Sulfo-Cy7-FSC-RGD (6 MBq) were diluted with phosphate buffered saline to a concentration of 1 μM. Subsequently 50 μL of this solution was added to six Eppendorf tubes containing 450 μL PBS and 500 μL octanol. The mixture was vortexed (1400 rpm) at RT for 15 min using a MS 3 basic vortexer (IKA, Staufen, Germany) followed by centrifugation for 2 min at 4500 rpm. Aliquots of 100 μL of both phases were transferred to plastic vials, measured in the γ-counter and logD values were calculated. For stability testing, radiolabeled tracers were diluted with 450 μL fresh human serum and 450 μL PBS as control to a concentration of 2 μM followed by incubation at 37 °C. After 1, 2, and 4 h (n = 3) 50 μL aliquots were precipitated with acetonitrile (1:1) and centrifuged for 2 min at 14 × 10^3 rpm. The supernatant was analyzed by radio-RP-HPLC to evaluate for decomposition and corresponding chromatograms are shown in Supporting Information. For protein binding measurement aliquots were analyzed by size exclusion chromatography using MicroSpin G-50 Columns (Sephadex G-50, GE Healthcare, Vienna, Austria) in triplicates. First, the columns were centrifuged at 750 rcf for 1 min to remove the storage buffer. After adding 25 μL of incubation solution columns were centrifuged again for 2 min with 2000 rcf. Column and eluate were measured in the γ-counter and percentages of nonprotein bound radiolabeled peptide (column) and protein bound radiotracer (eluate) were calculated.

[2] = tested on: M21 (αvβ3 positive) cells; assay: M21 internalization assay (radioligand); assay type: cell-based, human; details: for Cell uptake (internalized): M21 (αvβ3 positive); for membrane bound amount of activity: M21 cells
Description: (§2) Integrin αvβ3 positive (M21) and αvβ3 negative (M21-L) cells were diluted with incubation medium, i.e., corresponding growth medium containing 1% glutamine (m/v), 1% BSA (m/v), CaCl2 (1 mM), MgCl2 (1 mM), and MnCl2 (10 mM) to a concentration of 2.0 × 10^6 cells/ml. Aliquots of one milliliter were transferred to Eppendorf tubes and six technical replicates for each cell line were incubated for 1 h at 37 °C. Subsequently 50 μL of the radiolabeled ligand (1.2 nM [^68Ga]Sulfo-Cy7-FSC-RGD in PBS/0.5% BSA, approximately 2 × 10^4 cpm) were added and incubated at 37 °C for further 60 and 120 min, respectively. After incubation the tubes were centrifuged (2 min, 5000 rpm; Eppendorf Centrifuge 5424, Hamburg, Germany) and the supernatant was removed and collected. Hereafter the cells were washed twice with 1 mL ice-cold washing buffer (10 mM TRIS-buffered saline, pH 7.3) and the fractions were combined with the supernatant (wash fraction). To determine the membrane bound tracer amount cells were washed two times with 1 mL acetate buffer (20 mM, pH 4.5, 10 min at 37 °C) and the supernatant was collected. The residual cells were lysed by adding 1 mL of 2 M NaOH twice and collected in plastic vials (internalized fraction). The activity of all collected vials was measured in the γ-counter and compared to standard solution (50 μL radiotracer).

[3] = tested on: M21-L (αvβ3 negative) cells; assay: M21-L internalization assay (radioligand); assay type: cell-based, human; details: for Cell uptake (internalized): M21-L (αvβ3 negative); for unspecific membrane bound activity: M21-L cells
Description: as §2

[4] = mouse, in vivo
Description: (§3) All animal experiments were conducted in accordance with regulations and guidelines of the Czech Animal Protection Act (No. 246/1992), and with the approval of the Czech Ministry of Education, Youth, and Sports (MSMT-22421/2013–12), and the institutional Animal Welfare Committee of the Faculty of Medicine and Dentistry of Palacky University in Olomouc. The studies were performed using female 8–10-week-old athymic BALB/c nude mice (Envigo, Horst, The Netherlands). The number of animals was reduced as much as possible (n = 3 per group and time point for all experiments) and retro-orbital (r.o.) tracer injection as well as small animal imaging was carried out under 2% isoflurane anesthesia (FORANE, Abbott Laboratories, Abbott Park, IL, USA) to minimize animal suffering.
(§4) Tumor xenografts were established near the front shoulder of mice by subcutaneous injection of 5 × 10^6 cells (U-87 MG) or 2 × 10^6 cells (A431-CCK2R) and the same amount of A431-mock cells as a control in 200 μL appropriate medium and Matrigel (1:1). The tumors were allowed to grow until they had reached a volume of 0.2 to 0.5 cm^3. To evaluate ex vivo biodistribution mice were injected with 1–2 MBq (0.05–0.14 nmol) of radiotracer per mouse and mice were sacrificed by cervical dislocation after 30 and 90 min for [^68Ga]Sulfo-Cy7-FSC-RGD and after 1 and 2 h in the case of [^68Ga]Sulfo-Cy7-FSC-MG. Tumors, blood, muscle tissue, and organs were extracted, weighed, and activity uptake of the samples was measured in the gamma counter. Results were expressed as percentage of injected dose per gram tissue (% ID/g). In vivo PET and CT images were acquired with an Albira PET/SPECT/CT small animal imaging system (Bruker Biospin Corporation, Wood-bridge, CT, USA). Xenograft bearing mice were injected with radiolabeled peptides in a dose of ~5 MBq corresponding to 1–2 μg (0.25–0.58 nmol) of peptide per mouse. Anaesthetized animals were positioned prone head first in the Albira system before the start of imaging. Static PET/CT imaging was carried out 30 and 90 min p.i. for [^68Ga]Sulfo-Cy7-FSC-RGD. Animals injected with [^68Ga]Sulfo-Cy7-FSC-MG were imaged 1 and 2 h p.i. A 10 min PET scan (axial FOV 148 mm) was performed, followed by a CT scan (axial FOV 65 mm, 45 kVp, 400 μA, at 400 projections). Scans were reconstructed with the Albira software (Bruker Biospin Corporation, Woodbridge, CT, USA) using the maximum likelihood expectation maximization (MLEM) and filtered backprojection (FBP) algorithms. After reconstruction, acquired data was viewed and analyzed with PMOD software (PMOD Technologies Ltd., Zurich, Switzerland). 3D images were obtained using VolView software (Kitware, Clifton Park, NY, USA). Near-infrared in vivo fluorescence imaging was performed with an In-Vivo MS FX PRO small animal imaging system (Bruker Biospin Corporation, Woodbridge, CT, USA). Sulfo-Cy7-FSC-MG and Sulfo-Cy7-FSC-RGD were injected in a dose of 0.25–0.58 nmol per mouse and after supine head first positioning, imaging was conducted in various time intervals up to 72 h p.i. An appropriate filter set (excitation = 730 nm and emission = 790 nm) was used for acquiring the Sulfo-Cy7-FSC-peptide - fluorescence in vivo. Identical illumination settings (acquisition time = 15 s, filters = 730/790 nm, f-stop = 2.8, field of view = 100 mm, and binning = 4 × 4) were used for acquiring all images, and fluorescence emission was normalized to photons/s/mm^2. Images were acquired and analyzed using Bruker MI SE software (Bruker Biospin Corporation, Woodbridge, CT, USA).

[5] = tested on: U-87MG (αvβ3 positive) xenograft bearing mice; details: mouse, in vivo, 1.5 h
Description: as §3, §4

[6] = tested on: mice bearing U-87MG tumor xenografts; assay: Static micro-PET/CT imaging, U-87MG xenografts; assay type: in vivo, mouse; details: static PET, 30 and 90 min p.i.
Description: All animal experiments were conducted in accordance with regulations and guidelines of the Czech Animal Protection Act (No. 246/1992), and with the approval of the Czech Ministry of Education, Youth, and Sports (MSMT-22421/2013–12), and the institutional Animal Welfare Committee of the Faculty of Medicine and Dentistry of Palacky University in Olomouc. The studies were performed using female 8–10-week-old athymic BALB/c nude mice (Envigo, Horst, The Netherlands). […]
Tumor xenografts were established near the front shoulder of mice by subcutaneous injection of 5 × 10^6 cells (U-87 MG) or 2 × 10^6 cells (A431-CCK2R) and the same amount of A431-mock cells as a control in 200 μL appropriate medium and Matrigel (1:1). […] Tumors, blood, muscle tissue, and organs were extracted, weighed, and activity uptake of the samples was measured in the gamma counter. Results were expressed as percentage of injected dose per gram tissue (% ID/g). […] After reconstruction, acquired data was viewed and analyzed with PMOD software (PMOD Technologies Ltd., Zurich, Switzerland). […] Near-infrared in vivo fluorescence imaging was performed with an In-Vivo MS FX PRO small animal imaging system (Bruker Biospin Corporation, Woodbridge, CT, USA). […] An appropriate filter set (excitation = 730 nm and emission = 790 nm) was used for acquiring the Sulfo-Cy7-FSC-peptide - fluorescence in vivo. […]

[7] = 87 mg, accumulation in tumor tissue

Structure (SMILES): C/C1=C/C(=O)N(O)CCC[C@H](NC(=O)CCN2C(=O)CC(SCCOCCOCCOCCOCCC(=O)NCCCC[C@@H]3NC(=O)[C@@H](Cc4ccccc4)NC(=O)[C@H](CC(=O)O)NC(=O)CNC(=O)[C@H](CCCNC(=N)N)NC3=O)C2=O)C(=O)OCC/C(C)=C\C(=O)N(O)CCC[C@H](NC(=O)CCN2C(=O)CC(SCCOCCOCCOCCOCCC(=O)NCCCC[C@@H]3NC(=O)[C@@H](Cc4ccccc4)NC(=O)[C@H](CC(=O)O)NC(=O)CNC(=O)[C@H](CCCNC(=N)N)NC3=O)C2=O)C(=O)OCC/C(C)=C\C(=O)N(O)CCC[C@H](NC(=O)CCCCC[N+]2=C(C=CC3=CC(=CC=C4N(C)c5ccc(S(=O)(=O)[O-])cc5C4(C)C)CCC3)C(C)(C)c3cc(S(=O)(=O)O)ccc32)C(=O)OCC1 (stereo partly drawn) [[^68Ga]Sulfo-Cy7-FSC-RGD, metal not drawn]
- logD [1]: -2.3 ± 0.16
- Binding to serum proteins (in vitro): approximately 20%
- remaining at 1 h, 2 μM (physchem): 95.7 ± 0.1%
- remaining at 2 h, 2 μM (physchem): 94.7 ± 0.6%
- remaining at 4 h, 2 μM (physchem): 94.4 ± 0.3%
- Cell uptake (internalized) ([2]; 1 h): 2.45 ± 0.36%
- Cell uptake (internalized) ([2]; 2 h): 4.41 ± 1.17%
- membrane bound amount of activity ([2]; 1 h): 1.09 ± 0.23%
- membrane bound amount of activity ([2]; 2 h): 1.79 ± 0.59%
- Cell uptake (internalized) ([3]; 1 h): 0.43 ± 0.25%
- Cell uptake (internalized) ([3]; 2 h): 0.71 ± 0.66%
- unspecific membrane bound activity ([3]; 1 h): 0.29 ± 0.12%
- unspecific membrane bound activity ([3]; 2 h): 0.80 ± 0.62%
- cell uptake on αvβ3 negative cells relative to αvβ3 positive cells (reduced to) ([3]; M21-L vs M21, 1 and 2 h): approximately 1/6
- tissue uptake at 0.5 h [4, 7]: 10.1 ± 0.8 %ID/g
- tissue uptake at 1.5 h [4, 7]: 7.5 ± 0.8 %ID/g
- tissue uptake at 0.5 h ([4]; blood): 4 ± 0.4 %ID/g
- tissue uptake at 1.5 h ([4]; blood): 1.3 ± 0.2 %ID/g
- tissue uptake at 1.5 h ([4]; kidney retention): 54.8 ± 1.1 %ID/g
- kidney retention [5]: 57.3 ± 4.6 % ID/g
- PET tumor visualization [6]: tumor was visualized clearly
